B1: Phage-3883 (peptide)
peptide: VDYVCRPSWMCSGI
notes: tested as crude phage supernatant; The number 3883 of the label stands in r4366
B2: Phage-3894 (peptide)
peptide: DLQMCLPKWMCVGF
notes: tested as crude clonal phage supernatant
B3: Phage-3896 (peptide)
peptide: PDVHCVPRWMCDGL
notes: as for B2
B4: Phage-3891 (peptide)
peptide: VVYTCVPSWMCTGL
notes: as for B2
B5: Phage-3890 (peptide)
peptide: DQHACRPEWMCVGF
notes: as for B2
B6: Phage-3888 (peptide)
peptide: LQIRCQPVWMCHGF
notes: as for B2
B7: Phage-3889 (peptide)
peptide: IDTLCVPWWMCSGF
notes: as for B2
B8: Phage-3887 (peptide)
peptide: ILRHCTPEWMCIGL
notes: as for B2
B9: Phage-3895 (peptide)
peptide: EWIMCTPPWMCHGF
notes: as for B2
B10: Phage-3892 (peptide)
peptide: DYWYCQPAWMCTGL
notes: as for B2
B11: Phage-3897 (peptide)
peptide: LTLKCAPAWMCNGF
notes: as for B2
B12: Phage-3884 (peptide)
peptide: TEPACVPPWMCVGW
notes: as for B2
B13: Phage-3893 (peptide)
peptide: LVPRCLPEWMCTGF
notes: as for B2
B14: Phage-3886 (peptide)
peptide: TEHQCVPAWMCGGF
notes: as for B2
B15: Phage-3885 (peptide)
peptide: GMVRCVPDWMCYGF
notes: as for B2
B16: Phage-3935 (Peptide-180 library clone) (peptide)
peptide: PGFWCQPKWMCEGF
notes: Tested as clonal phage supernatant; not shown: fused to the pIII filament protein of the bacteriophage
B17: Phage-3936 (Peptide-180 library clone) (peptide)
peptide: WVRLCQPAWMCTGL
notes: as for B16
B18: Phage-3933 (Peptide-180 library clone) (peptide)
peptide: YTQACTPSWMCHGF
notes: as for B16
B19: Phage-3926 (Peptide-180 library clone) (peptide)
peptide: VERFCEPAWMCIGL
notes: as for B16
B20: Phage-3932 (Peptide-180 library clone) (peptide)
peptide: LNVECVPQWMCDGF
notes: as for B16
B21: Phage-3937 (Peptide-180 library clone) (peptide)
peptide: LTPVCRPAWMCLEL
notes: as for B16
B22: Phage-3931 (Peptide-180 library clone) (peptide)
peptide: PTIMCIPVWMCQAF
notes: as for B16
B23: Phage-3934 (Peptide-180 library clone) (peptide)
peptide: DIVECRPRWMCDGF
notes: as for B16
B24: Phage-3930 (Peptide-180 library clone) (peptide)
peptide: QLLRCVPPWMCEGF
notes: as for B16
B25: Phage-3938 (Peptide-180 library clone) (peptide)
peptide: MQDFCKPLWMCSGF
notes: as for B16
B26: Phage-3927 (Peptide-180 library clone) (peptide)
peptide: SMQKCVPSWMCAGF
notes: as for B16
B27: Phage-3928 (Peptide-180 library clone) (peptide)
peptide: WDLLCSPPWMCAGM
notes: as for B16
B28: Phage-3925 (Peptide-180 library clone) (peptide)
peptide: NERFCEPAWMCHGF
notes: as for B16
B29: Phage-3929 (Peptide-180 library clone) (peptide)
peptide: TWSICEPRWMCEGF
notes: as for B16

target: T1, PSMA Fab; assay: clonal phage ELISA on captured PSMA Fab, wells pre-incubated with PSMA antigen as competitor
T1 construct: also called Anti-PSMA Fab; 006 PSMA Fab
Method: (§1) Clonal phage were harvested as crude supernatants and screened via standard ELISAs. […] Prior to the addition of clonal phage. wells were incubated with blocking buffer and PSMA antigen or blocking buffer alone. Without washing or aspirating, clonal phage supernatants were then added to the wells and incubated for a short time. Wells were then washed followed by detection of bound phage using a horse radish conjugated anti-M13 antibody.

| Binder | phage binding ELISA signal |
| --- | --- |
| B1 | 0.0618 |
| MDVWCVPQWMCDGF (tested as crude phage supernatant) [Phage-3882] | 0.0645 |
| ESKLCIPDWMCILL (tested as crude phage supernatant) [Phage-3881] | 0.0662 |

target: T2, 006 PSMA Fab; assay: clonal phage ELISA; biotinylated PSMA Fab captured on neutravidin plate, blocking buffer alone; bound phage detected with anti-M13 HRP
T2 construct: In the phage ELISA the PSMA Fab was biotinylated and captured on neutravidin coated plates; also called Anti-PSMA Fab
Method: as §1

| Binder | Phage binding ELISA signal, Anti-PSMA Fab |
| --- | --- |
| LVRMCQPPWMCDGF [Phage-3941] | 0.912 |
| PLTSCVPQWMCYGF [Phage-3940] | 0.913 |
| YARECIPQWMCGGF [Phage-3939] | 0.918 |

target: T3, PSMA Fab (006 PSMA Fab); assay: phage ELISA on captured PSMA Fab pre-incubated with the competitor PSMA antigen, anti-M13-HRP detection
T3 construct: also called Anti-PSMA Fab
Method: as §1

| Binder | phage binding ELISA signal, Anti-PSMA Fab in the presence of PSMA |
| --- | --- |
| ATVRCMPMWMCHGF [Phage-3912] | 0.0901 |
| QNFHCVPQWMCDWL [Phage-3913] | 0.0986 |
| DRVLCTPTWMCEGF [Phage-3917] | 0.0642 |
| AQKLCEPMWMCVGF [Phage-3918] | 0.064 |
| MSPMCSPSWMCMGF [Phage-3919] | 0.0911 |
| GQIMCIPTWMCSGF [Phage-3921] | 0.0809 |
| ESRACVPNWMCHGL [Phage-3911] | 0.06 |
| STTLCRPAWMCTGM [Phage-3916] | 0.0655 |
| IEAQCRPVWMCHGF [Phage-3923] | 0.0779 |
| FGVKCEPRWMCNGF [Phage-3914] | 0.0693 |
| GAYTCVPAWMCQGF [Phage-3922] | 0.0665 |
| YNQYCTPLWMCEGF [Phage-3924] | 0.0796 |
| YQMLCVPEWMCSGL [Phage-3915] | 0.0874 |
| AQVLCVPNWMCTGF [Phage-3920] | 0.0618 |

target: T2, 006 PSMA Fab; assay: clonal phage ELISA; biotinylated PSMA Fab captured on neutravidin plate, wells pre-incubated with PSMA antigen as competitor; bound phage detected with anti-M13 HRP
Method: as §1

| Binder | Phage binding ELISA signal, Anti-PSMA Fab with PSMA antigen |
| --- | --- |
| LVRMCQPPWMCDGF [Phage-3941] | 0.0699 |
| PLTSCVPQWMCYGF [Phage-3940] | 0.0873 |
| YARECIPQWMCGGF [Phage-3939] | 0.0765 |

target: T3, PSMA Fab (006 PSMA Fab); assay: clonal phage supernatant on biotinylated PSMA Fab captured on neutravidin plate, anti-M13-HRP detection;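 also: before phage were added, wells received PSMA antigen in blocking buffer or blocking buffer alone, with no wash in between, followed by a short phage incubation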
Method: as §1

| Binder | Phage binding ELISA signal, Anti-PSMA Fab |
| --- | --- |
| ATVRCMPMWMCHGF [Phage-3912] | 1.03 |
| QNFHCVPQWMCDWL [Phage-3913] | 1.02 |
| DRVLCTPTWMCEGF [Phage-3917] | 1.01 |
| AQKLCEPMWMCVGF [Phage-3918] | 1 |
| MSPMCSPSWMCMGF [Phage-3919] | 0.993 |
| GQIMCIPTWMCSGF [Phage-3921] | 0.98 |
| ESRACVPNWMCHGL [Phage-3911] | 1.03 |
| STTLCRPAWMCTGM [Phage-3916] | 1.02 |
| IEAQCRPVWMCHGF [Phage-3923] | 0.978 |
| FGVKCEPRWMCNGF [Phage-3914] | 1.02 |
| GAYTCVPAWMCQGF [Phage-3922] | 0.979 |
| YNQYCTPLWMCEGF [Phage-3924] | 0.977 |
| YQMLCVPEWMCSGL [Phage-3915] | 1.02 |
| AQVLCVPNWMCTGF [Phage-3920] | 0.985 |

target: T1, PSMA Fab; assay: clonal phage ELISA on biotinylated PSMA Fab captured on neutravidin plates, anti-M13 HRP detection;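 also: crude clonal phage supernatants tested, before phage were added, wells were pretreated with PSMA antigen in blocking buffer or with blocking buffer only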
Method: as §1

| Binder | phage binding ELISA signal |
| --- | --- |
| B1 | 1.12 |
| MDVWCVPQWMCDGF (tested as crude phage supernatant) [Phage-3882] | 1.12 |
| ESKLCIPDWMCILL (tested as crude phage supernatant) [Phage-3881] | 1.13 |

target: T4, 006 PSMA Fab (biotinylated (site not stated)); assay: clonal phage ELISA; biotinylated PSMA Fab on neutravidin plate pre-incubated with PSMA antigen as competitor, anti-M13-HRP detection
T4 construct: also called Anti-PSMA Fab

| Binder | Phage binding ELISA signal, Anti-PSMA Fab in the presence of PSMA antigen |
| --- | --- |
| B2 | 0.0639 |
| B3 | 0.0633 |
| B4 | 0.062 |
| B5 | 0.0789 |
| B6 | 0.0801 |
| B7 | 0.0774 |
| B8 | 0.0689 |
| B9 | 0.0638 |
| B10 | 0.0585 |
| B11 | 0.0619 |
| B12 | 0.128 |
| B13 | 0.0848 |
| B14 | 0.0809 |
| B15 | 0.0613 |

target: T4, 006 PSMA Fab; assay: clonal phage ELISA; biotinylated PSMA Fab on neutravidin plate, blocking buffer alone, anti-M13-HRP detection;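 also: crude clonal phage supernatants added without washing to wells preincubated with PSMA antigen or with blocking buffer alone, briefly incubated, then washed before bound phage detection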
Method: as §1

| Binder | Phage binding ELISA signal, Anti-PSMA Fab |
| --- | --- |
| B2 | 1.09 |
| B3 | 1.08 |
| B4 | 1.1 |
| B5 | 1.1 |
| B6 | 1.1 |
| B7 | 1.1 |
| B8 | 1.11 |
| B9 | 1.09 |
| B10 | 1.1 |
| B11 | 1.08 |
| B12 | 1.12 |
| B13 | 1.09 |
| B14 | 1.11 |
| B15 | 1.11 |

target: T5, PSMA Fab (006 PSMA Fab); assay: phage binding ELISA; biotinylated PSMA Fab on neutravidin plate, clonal phage supernatant, anti-M13 HRP detection;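 also: wells were preincubated with blocking buffer either containing PSMA antigen or without it before crude phage supernatant was added, briefly incubated, then washed prior to detection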
T5 construct: also called Anti-PSMA Fab; anti-PSMA Fab
Method: as §1

| Binder | Phage binding ELISA signal, Anti-PSMA Fab |
| --- | --- |
| B16 | 0.93 |
| B17 | 0.926 |
| B18 | 0.96 |
| B19 | 0.972 |
| B20 | 0.965 |
| B21 | 0.922 |
| B22 | 0.966 |
| B23 | 0.936 |
| B24 | 0.97 |
| B25 | 0.921 |
| B26 | 0.972 |
| B27 | 0.971 |
| B28 | 0.977 |
| B29 | 0.97 |

— US20260242478A1 (published 2026)
